Reference: patent US20220356230A1

Molecular target: SARS-CoV-2 Spike Protein (RBD)(R319-F541).mmH, unmodified (SARS-CoV-2)
Test: Luminex, supernatant on bead-coupled RBD.mmH
Settings: remark: other sources report otherwise

B1: mAb11006 (antibody, V domains shown)
VH: EVQLVESGGGLVQPGGSLRLSCAASGFIVSRNYMSWVRQAPGKGLEWVSVIYSGGSTFYADSVKGRFTISRHNSKNTLYLQMNSLKAEDTAVYYCARELRGYFDYWGQGTLVTVSS
VL: DIQLTQSPSFLSASVGDRVTITCWASQGISSYLAWYQQKPGKAPKLLIYAASTLQSGVPSRFSGSGSGTEFTLTISSLQPEDFATYYCQLLNSYPYTFGQGTKLEIK
  Binding signal (MFI): 2040 MFI
